Assay results reported in paper PMC9253517 (The Journal of Experimental Medicine, 2022).

Key:
[1] = target: T1, SARS-CoV-2 Wuhan-Hu-1 RBD (SARS-CoV-2, Wuhan-Hu-1 (GenBank …, UniProt P0DTC2)); assay: BLI; conditions: both partners purified
[2] = target: T1, SARS-CoV-2 Wuhan-Hu-1 RBD; assay: cell-based or functional assay

B1: JR069 (antibody, V domains shown)
VH: EVQLVESGGGLVQPGGSLRLSCAASGFSFSNYDMLWLRQITGRGLEWVSLIGTSGDTYYSDSVKGRFTISRENGKNSLYLQMNRLRAGDTAVYYCARGNFDTSGFYSYFDTWGQGTLVTVSS
VL: DIQLTQSPSYLSASVGDRVTITCRASQTIKNYLNWYQQKPGKAPKLLIYAVSTLQNGVSSRFRGSGSGTDFTLTISSLQPEDFATYYCQQSYTIPPYTFGQGTKLEIK
For B1, the binding result [1] was “binds” and the “neutralisation IC50, Wuhan-Hu-1 pseudovirus” value (“neutralisation IC50” below) [2] was over 1 µg/mL.

B2: JR186 (antibody, V domains shown)
VH: EVQLLESGGGLIPPGGSLRLSCAASGFTFSSYAMSWVRQAPGKGLEWVSGISGSGTDTDEGDSVKGRFTISRDNSKNTLWLQIHTLRVEDTAIYYCAKASRGYVSNFDYFDRWGQGTLVTVSS
VL: SYELTQPPSVSVAPGETAKITCGGDNIGTKSVHWYLQKAGQAPVLVISDDSNRPSGIPERFSGSNSGNTATLTINRVEGGDEADYYCQVWTSFGAGTRVTVI
In the case of B2, the binding result [1] is reported as “binds” and the “neutralisation IC50” value [2] is reported as 0.0742 µg/mL.

B3: JR072 (antibody, V domains shown)
VH: VQLVESGGGVVQPGRSLRLSCAASGFTFSTYGMHWVRQAPGKGLEWVAGISYDGSDKYYGDSVRGRFTVSRDNSKNTLYLQMNSLRAEDTAVYYCAKGQGPYCSAGNCYTHYFDYWGQGTLVTVSS
VL: EIVLTQSPATLSLSPGERATLSCRASQSVGNYLAWYQQKPGQAPRLLIDDASNRAAGTPARFSGSGSGTDFTLTISSLEPEDFAVYYCQQRSNWPPITFGQGTRLEIK
B3 was tested, and the binding result [1] was “binds” and the “neutralisation IC50” value [2] was over 1 µg/mL.

B4: JR065 (antibody, V domains shown)
VH: VQLVESGGGVAQPGRSLRLSCAASGFTFSHYGMHWVRQGPGKGLEWVAGISFDGSDKYYADSVKGRFTISRDNSKNTFYLQMNSLRTDDTAVFYCAKQGFGYGSGWYYFDYWGQGTLVTVSS
VL: IRMTQSPSSLSASVGDRVTITCQASQDISKYLNWYQQRPGKAPKPLIYDASNLETGVPSRFSGSGSGTDFTLTITNLQPEDIATYYCQQYDNVPSVTFGQGTRLEIK
With B4 the binding result [1] was “binds” and the “neutralisation IC50” value [2] was over 1 µg/mL.

B5: JR099 (antibody, V domains shown)
VH: EVQLVESGGGLVQPGGSLRLSCAASGFTFSDYDMHWVRQVRGKGLEWLSIIGTAGDTYYPDSVKGRFTISRENAKNSLYLQMNSLRVGDTGVYYCARDRASTSGTDGMDVWGQGTTVTVSS
VL: DIQLTQSPSSLSASVGDRVTITCRASQSISRYLNWYQQRPGKAPKLLIYAAFTLESGVPSRFSGSGSGTDFTLTISSLQAEDFATYHCQQSYSTSALTFGGGTKVEIK
With B5 the binding result [1] was “binds” and the “neutralisation IC50” value [2] was 0.0463 µg/mL.

B6: JR054 (antibody, V domains shown)
VH: QLQLQESGPRLMKPSETLSLTCSVSGGSISRSHYYWGWIRQPPGKGLEWIGSIYYNGSTYYNPSLRSRVTISVDTTKNQFSLKLSSVTAADTAEYYCARPGPSYYDRSGYNRAEYFQHWGQGTLVTVSS
VL: IRMTQSPSSLSASVGDRVTITCQASQDISNYLNWYQQKPGKAPKLLIYDASNLETGVPPRFSGSGSGTDFTFTISSLQPEDFATYSCQQYDNLPLTFGGGTKVEIK
In the case of B6, the binding result [1] is reported as “binds” and the “neutralisation IC50” value [2] is reported as 0.0513 µg/mL.

B7: JR206 (antibody, V domains shown)
VH: EVQLVQSGAEVKKPGESLKISCKGSGFNFSRYWIGWVRQMPGKGLEWMGIIYLGDSDTTYSPSFQGQVTISADKSISTAYLQWSSLKASDTAMFYCATRSGYFYGYETWGQGTLVTVSS
VL: SYELTQPPSVSVAPGKTAKITCGGNNIGSKTVHWYQQRPGQAPVLVVYDNRDRPSGIPERFSGSNSGNTAALTISRVEAGDEADYYCQVWDSSSDHYVFGTGTKVTVL
With B7 the binding result [1] was “binds” and the “neutralisation IC50” value [2] was 0.137 µg/mL.

B8: JR209 (antibody, V domains shown)
VH: EVQLLESGGGLVQPGQSLRLYCAASGFTFSSHGMSWVRQAPGKGLEWVSSISSSGGRTYDADSVKGRFTISRDNSENTVYLQMNSLRVADTAVYYCVKENGPHRWSGEVHGMDVWGQGTTVTVSS
VL: QSVLTQPPSVSGAPGQRVTISCTGSSSNIGTGYDVHWYQHLPGTAPKLLIYDNNNRPSGVPDRFSGSKSATSASLAITGLQAEDEGDYYCQSYDTSLSGLAFGGGTKLTVL
For B8, the binding result [1] was “binds” and the “neutralisation IC50” value [2] was 0.0901 µg/mL.

B9: JR053 (antibody, V domains shown)
VH: QVQLVQSGAEVKKPGASVKVSCKASGYTFTSHYMHWVRQAPGQGLEWMGIINPSGGSTSHAQKFQGRVTLTSDTSTSTVYMELSSLRSEDTAVYYCARDLSFIPSIAWNCGYWGQGTLVTVSS
VL: QSALTQPASVSGSPGQSITISCTGTSSDVGGYNYVSWYQQHPGKAPKLMIYDVSDRPSGVSNRFSGSKSGNTASLTISGLQAEDEADYYCSSYTSSSSYVFGTGTKVTVL
With B9 the binding result [1] was “binds” and the “neutralisation IC50” value [2] was over 1 µg/mL.

B10: JR050 (antibody, V domains shown)
VH: QVQLVQSGAEVKKPGASVKVSCKTSGDTFTNHYMHWVRQAPGQGLEWMGIINPSAGSTSYAQKFQGRVTMTRDTSTSTVYMELSSLRSEDTAVYYCARDIVFIPALDAFDIWGQGTMVTVSS
VL: EIVLTQSPATLSLSPGERATLSCRASQSVSSYLAWYQQKPGQAPRLLIYDTSNRATGIPARFSGSGSGTDFTLTISSLEPEDFAVYYCQQRRNWPPMYTFGQGTKLEIK
With B10 the binding result [1] was “binds” and the “neutralisation IC50” value [2] was over 1 µg/mL.

B11: JR077 (antibody, V domains shown)
VH: EVQLVESGGGLVQPGGSLRLSCAASGFTFSDYDMHWVRQVTGKGLEWVSAVGTRGDTYYAASVKGRFTISRENAKNSLYLQMNSLRAGDTAVYYCARVGYDSTGFYYYFDYWGQGTLVTVSS
VL: DIQLTQSPSSLSASVGDRVTITCRASQRIGRFLNWYQQKPGKAPKLLIYIVSSLQSGVPSRFSGSGSGTDFTLTINSLQPEDFATYYCQQTYNMPPITFGQGTRLEIK
For B11, the binding result [1] was “binds” and the “neutralisation IC50” value [2] was over 1 µg/mL.

B12: JR195 (antibody, V domains shown)
VH: EVQLVESGGGLVQPGRSLRLSCAASGFTFDDYTMHWVRQAPGKGLEWVSAISWNSDALGYADSVKGRFTISRDNAKNSLYLQMNSLRPEDTALYYCAKDIDFGGSGSFDVFHIWGHGTMVTVS
VL: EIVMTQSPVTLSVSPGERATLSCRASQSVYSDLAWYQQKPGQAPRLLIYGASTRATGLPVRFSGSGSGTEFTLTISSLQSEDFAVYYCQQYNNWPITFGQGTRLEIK
With B12 the binding result [1] was “binds” and the “neutralisation IC50” value [2] was over 1 µg/mL.

B13: JR154 (antibody, V domains shown)
VH: EVQLVESGGGLVQPGRSLRLSCEASGFIFDDYAMHWVRQGPGKGLEWVSGITSNSGSMGYADSVKGRFTISRDNAKNSLYLQMNSLRPEDTAFYYCAKDMVSGVFLWFGELENWGQGTLVTVS
VL: QSVLTQPPSASGTPGQRVTISCYGSRSNFGTNTVNWYQQLPGMAPRLLIHSHNQRPSGVPARFSGSKSGTSASLAISGLQSEDEAHYYCASWDGGLNAVVFGGGTKLIVL
For B13, the binding result [1] was “binds” and the “neutralisation IC50” value [2] was over 1 µg/mL.

B14: JR060 (antibody, V domains shown)
VH: QVQLVQSGAEVKKPGASVRVSCKASGYTFNNYGIIWVRQAPGQGLEWVGWISAYNANTNYAQKLQGRVSMTTDTPTSTVYMELRSLRSDDTAVYYCASGLGAAGTEPPSDYWGQGTLVTVSS
VL: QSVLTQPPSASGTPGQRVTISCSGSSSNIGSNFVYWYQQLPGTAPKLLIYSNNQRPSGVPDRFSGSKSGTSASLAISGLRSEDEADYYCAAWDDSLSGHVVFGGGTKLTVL
For B14, the binding result [1] was “binds” and the “neutralisation IC50” value [2] was over 1 µg/mL.

B15: JR150 (antibody, V domains shown)
VH: QVQLVQSGAEVKKPGASVKVSCKASRYTFASYYMHWVRQAPGQGLEWMGIINPGGGSTSYAQNFQGRVSMTSDTSTSTVYMELRSLRSEDTAVYYCARDSEFVPTAHGAFEIWGQGTMVTVSS
VL: EIVLTQSPATLSLSPGERATLSCRASQSVSSYLAWYQQKPGQAPRLLIYDASNRATGIPARFSGSGSGTDFTLTISSLEPEDFAVYYCQQRSNWLVTFGGGTKVEIK
B15 was tested, and the binding result [1] was “binds” and the “neutralisation IC50” value [2] was over 1 µg/mL.

B16: JR068 (antibody, V domains shown)
VH: QVQLQESGPGLVKPSQTLSLTCTVFGGSIRSGDYYWSWIRQPPGKGLEWMGYIYSSGSAYYNPSLESRVTISIDASKNQFSLKVNSVTAADTAVYYCARDGFWFGFGSFDIWGLGTMVTVSS
VL: EIVMTQSPATLSVSPGERAALSCRASQSVSSNLAWYQQRVGQAPRLLIYGASTRATGIPARFSGSGSGTEFTLTISSLQSEDFAVYYCQQYNNWPPLTFGGGTKVEIK
For B16, the binding result [1] was “binds” and the “neutralisation IC50” value [2] was over 1 µg/mL.

B17: JR317 (antibody, V domains shown)
VH: QVQLVESGGGVVQPGKSLRLSCAASGFTFSSYGMHWVRQAPGKGLEWVAVIWYDGSNKYYADSVKGRFTISRDNSKSTLYVQMNSLRAEDTAVYYCARVRTIFRPLDYMDVWGKGTTVTVSS
VL: SYELTQPPSVSVAPGQTARITCGGNNIGSKSVHWYQQKPGQAPVLVVYDDSARPSGIPERFSGSNSGNAATLTISRVEAGDEADYYCQVWDRDYSSDHLWVFGGGTKLTVL
In the case of B17, the binding result [1] is reported as “binds” and the “neutralisation IC50” value [2] is reported as 0.0344 µg/mL.

B18: JR078 (antibody, V domains shown)
VH: VQLVESGGGVVQPGRSLRLSCAASGFIFRSYGMNWVRQAPGKGLEWVAVMSYDGNDKDYADSVKGRFTISRDDSKNTLYLQMNSLRAEDTAVYYCAKSGGLYCSGGNCYSNYFDYWGRGTLVTVSS
VL: EIVLTQSPGTLSLSPGERATLSCRASQSVSSSYLAWYQQKPGQAPRLLISGASSRAAGIPDRFSGSGSGTDFTLTISRLAPEDFAVYYCQQYGYSLTFGGGTKVEIK
For B18, the binding result [1] was “binds” and the “neutralisation IC50” value [2] was over 1 µg/mL.

B19: JR204 (antibody, V domains shown)
VH: QVQLQESDPGLVTPSETLSLTCTVSGASVSSGSDYWNWIRQPPGKGLEWIGYIYYTGRTNYNPSLKSRVTISVDTSKNQFSLKLSSVTAADTAVYYCAREVIVLPAALPPFGLDVWGQGTTVTVSS
VL: SYELTQPPSVSVAPGKTARITCGGNNIGTKSVHWYQQKPGQAPVLVVYDDSDRPSGIPERFSGSNSENTATLTISRVEAGDEADYSCQVWDSSGDHVVFGGGTKLTVL
In the case of B19, the binding result [1] is reported as “binds” and the “neutralisation IC50” value [2] is reported as over 1 µg/mL.

B20: JR325 (antibody, V domains shown)
VH: QVQLQESGPGLVKPSQTLSLTCTVSGGSISSSDYYWSWIRQHPGKGLEWIGFIFYSGTTYYSPALKSRVSISVDTSKSQFSLKLHSVTAADTAVYYCARFSRNLGLNWFDPWGQGTLVTVSS
VL: QFVLTQPASVSGSPGQSITISCTGTSSDIGSYDLVSWYQQYPGKAPKLIIYEVNKRPSGVSSRFSGSKSGNTASLTISGLLAEDEADYYCCSYAGPNTVLFGGGTILTV
For B20, the binding result [1] was “binds” and the “neutralisation IC50” value [2] was over 1 µg/mL.
